In patent US20190049463A1 (VIB VZW, published 2019):
Changes are numbered by the printed parent chain.

Assays:
[1] = molecular target: β2AR truncated after amino acid 365 (β2AR-365), native (human) (UniProt P07550); test: cell-based or functional assay
[2] = molecular target: β2AR-T4L fusion protein (third intracellular loop replaced by T4 lysozyme, truncated at position 365) (human) (UniProt P07550); test: cell-based or functional assay
[3] = molecular target: T1, β2AR truncated after amino acid 365 (β2AR-365), native (human, UniProt P07550 1-365); test: cell-based or functional assay
[4] = molecular target: T1, β2AR truncated after amino acid 365 …; test: listed as β2AR-specific; phage selection and ELISA on reconstituted β2AR-365
Procedure: In a first screen we compared the binding of the nanobodies on the native and heat denatured β₂AR antigen in an ELISA. […] Next, this plate was incubated at 80° C. for two hours.
A single llama received six weekly administrations of the reconstituted truncated β₂AR. Lymphocytes were isolated from the blood of the immunized llama and total RNA was prepared from these cells. […] Antigen-bound phages were recovered from antigen-coated wells either with thriethylamine pH11 and neutralized with Tris-HCl pH7 or by the addition of freshly grown TG1 E. coli cells. After two rounds of bio-panning, 96 individual colonies were randomly picked and the nanobodies produced as a soluble HIS-tagged protein in the periplasm of the TG1 cells.

## Gs heterotrimer
[1]
  Ki of (-)-isoproterenol, high affinity state, β2AR/HDL reconstituted with Gs: 1.07 nM
  Ki of (-)-isoproterenol, low affinity state, β2AR/HDL reconstituted with Gs: 95.3 nM
  Ki of (-)-isoproterenol, low affinity state, β2AR/HDL reconstituted with Gs in the presence of 10 µM GTPγS: 95.2 nM
  fold increase of the affinity of isoproterenol for β2AR/HDL: 100 fold

B1: Nanobody-80 (Nb80), reference number CA2780 (VHH, not shown: small tags and cut ends)
VHH: QVQLQESGGGLVQAGGSLRLSCAASGSIFSINTMGWYRQAPGKQRELVAAIHSGGSTNYANSVKGRFTISRDNAANTVYLQMNSLKPEDTAVYYCNVKDYGAVLYEYDYWGQGTQVTVSS
[2]
  Ki of (-)-isoproterenol, high affinity state, β2AR-T4L/HDL with 1 µM Nb80 (33.5 without): 0.56 nM
  fold increase of the affinity of isoproterenol for β2AR-T4L/HDL: 60 fold

B2: Nanobody 65, reference number CA2765 (VHH)
VHH: B1 VHH with N61D, K64R, A75K
[3]
  Ki of (-)-isoproterenol for β2AR, [3H]-DHA competition on Sf9 membranes with 1 µM nanobody (295 without nanobody): 13.8 nM

B3: Nanobody CA2764 (VHH)
VHH: B1 VHH with N61D, A75K
notes: also called NB64
[4]
  binding result: binds

B4: Nanobody CA3413 (VHH)
VHH: B1 VHH with Q44R
notes: also called NB13
[4]
  binding result: binds

B5: Nanobody CA3431 (VHH)
VHH: B1 VHH with A14P
notes: also called NB31
[4]
  binding result: binds

B6: Nanobody 67, reference number CA2767 (VHH)
VHH: QVQLQESGGGLVQAGGSLRLSCAASGTISSFIAMGWYRQSPGKQRELVAGITSGGETNYEDSVKGRFTISRDNAKNTLYLQMNTLKPEDTAVYYCNAQVFADIFNLINYWGQGTQVTVSS
[3]
  Ki of (-)-isoproterenol for β2AR, [3H]-DHA competition on Sf9 membranes with 1 µM nanobody (295 without nanobody): 19.4 nM

B7: Nanobody 71, reference number CA2771 (VHH)
VHH: QVQLQESGGGLVQPGGSLRLSCAASGFAFSSYELRWYRQAPGKQHELVAGITTGGNTYYADSVKGRFTISRDNAKNTVYLQMSNLRPEDTAVYACNANWDLLSDYWGQGTQVTVSS
[3]
  Ki of (-)-isoproterenol for β2AR, [3H]-DHA competition on Sf9 membranes with 1 µM nanobody (295 without nanobody): 10.6 nM

B8: Nanobody CA3477 (VHH)
VHH: QVQLQESGGGLVQAGGSLRLSCAASGSIFSLNDMGWYRQAPGKQRELVAAITSGGSTNYADSVKGRFTISRDNAKNTVYLQMNSLKPEDTAVYYCNAKVAGTFSIYDYWGQGTQVTVSS
notes: also called NB77
[4]
  binding result: binds

B9: Nanobody CA3420 (VHH)
VHH: B8 VHH with E46D, N58K, I69V
notes: also called NB20
[4]
  binding result: binds

B10: Nanobody CA3433 (VHH)
VHH: B8 VHH with Q44L, I51V
notes: also called NB33
[4]
  binding result: binds

B11: Nanobody CA3472 (VHH)
VHH: B8 VHH with A14P, T52S, S56R, T57L, K98V, I105T
notes: also called NB72 (short notation shared with CA2772)
[4]
  binding result: binds

B12: Nanobody CA3475 (VHH)
VHH: B8 VHH with S17P, K98V, I105T
notes: also called NB75
[4]
  binding result: binds

B13: Nanobody CA3484 (VHH)
VHH: B8 VHH with Q44L, N58K, S62P, P87A
notes: also called NB84 (short notation shared with CA2784)
[4]
  binding result: binds

B14: Nanobody CA3424 (VHH)
VHH: QVQLQESGGGLVQAGGSLRLSCAASGSVFSLPTAGWYRQAPGKQRELVALITGSGSTHYADSVKGRFAISREYSKKTMDLQMNSLHREDTAVYFCYYRSTFTEYWGQGTQVTVSS
notes: also called NB24
[4]
  binding result: binds

B15: Nanobody CA3422 (VHH)
VHH: QVQLQESGGGLVQAGGSLRLSCAASGSIFSINAMGWYRQAPGKQRELVAASTSGDITNYADSVKGRFTISRDNAKNTVYLQMNSLEPEDTGVYYCNARGIYSDYAFADFNSWGQGTQVTVSS
notes: also called NB22
[4]
  binding result: binds

B16: Nanobody CA2784 (VHH)
VHH: QVQLQESGGGLVQAGGSLRLSCAASGSIFSINAMGWYRQAPGKQRELVAAITSGGSTTYADSVKGRFTVSRDNAKNTVYLQMIRLKPEDTAVYYCHVRDIYSDFLGQYEYDYWGQGTQVTVSS
notes: also called NB84 (short notation shared with CA3484)
[4]
  binding result: binds
